Assay results from publication PMC3179954, “A bacterial PriB with weak single-stranded DNA binding activity can stimulate the DNA unwinding activity of its cognate PriA helicase” (BMC Microbiology, 2011).

Assays:
PriB = target: T1, PriB (Neisseria gonorrhoeae, UniProt Q5F924 1-100); experiment: fluorescence polarization; 20 mM Tris-HCl pH 8, 10% glycerol, 50 mM NaCl, 1 mM 2-mercaptoethanol, 0.1 mg/ml BSA, 1 nM fluorescein-labeled DNA, 25 C; conditions: protein: recombinant, chain copies: 2
T1 sequence: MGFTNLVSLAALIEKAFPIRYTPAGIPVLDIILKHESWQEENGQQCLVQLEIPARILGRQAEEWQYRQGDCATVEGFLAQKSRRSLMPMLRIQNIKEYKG

PriA helicase = target: T2, PriA helicase (Neisseria gonorrhoeae, UniProt Q5F6V8 1-729); experiment: as above; conditions: protein: recombinant
T2 sequence: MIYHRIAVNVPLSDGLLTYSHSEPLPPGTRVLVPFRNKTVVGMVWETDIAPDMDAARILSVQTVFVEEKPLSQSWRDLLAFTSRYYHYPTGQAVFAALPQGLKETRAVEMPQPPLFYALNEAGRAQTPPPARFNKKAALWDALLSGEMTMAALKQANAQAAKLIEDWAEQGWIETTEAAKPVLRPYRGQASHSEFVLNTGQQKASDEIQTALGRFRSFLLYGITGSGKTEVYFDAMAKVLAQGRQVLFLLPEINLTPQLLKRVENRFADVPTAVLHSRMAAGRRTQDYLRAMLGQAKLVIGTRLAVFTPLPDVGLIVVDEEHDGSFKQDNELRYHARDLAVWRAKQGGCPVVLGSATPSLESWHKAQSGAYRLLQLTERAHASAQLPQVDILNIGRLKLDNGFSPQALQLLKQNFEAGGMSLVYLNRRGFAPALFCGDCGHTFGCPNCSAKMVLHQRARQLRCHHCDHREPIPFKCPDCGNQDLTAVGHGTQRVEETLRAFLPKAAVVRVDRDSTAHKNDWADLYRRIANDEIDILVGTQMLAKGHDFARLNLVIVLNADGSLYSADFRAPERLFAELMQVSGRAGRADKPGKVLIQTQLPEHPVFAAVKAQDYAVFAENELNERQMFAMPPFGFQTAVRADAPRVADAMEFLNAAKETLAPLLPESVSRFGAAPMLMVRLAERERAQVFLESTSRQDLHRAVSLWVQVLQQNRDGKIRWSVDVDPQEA

[1] = target: T3, N. gonorrhoeae PriA (N. gonorrhoeae) (UniProt Q5F6V8)
T3 sequence: T2 sequence

[2] = target: T3, N. gonorrhoeae PriA (N. gonorrhoeae); remark: listed apart in the source
[3] = substrate: Nc1ncnc2c1ncn2[C@@H]1O[C@H](COP(=O)(O)OP(=O)(O)OP(=O)(O)O)[C@@H](O)[C@H]1O; experiment: NADH-coupled spectrophotometric ATPase assay (pyruvate kinase / lactate dehydrogenase); type: biochemical, Neisseria gonorrhoeae; conditions: 100 nM Fork 3 DNA, no PriB, 10 nM PriA, 20 mM Hepes pH 8, 50 mM NaCl, 25°C
Description: NADH-coupled spectrophotometric ATPase assay (pyruvate kinase / lactate dehydrogenase) on N. gonorrhoeae PriA

[4] = label: 3' fluorescein on S5 (nascent lagging strand), 25 bp duplex, 3' overhang 25 nt on strand 1
[5] = label: 3' fluorescein, single strand

B1: 3' Overhang (oML276/oML277) (mixed)
DNA 1: AACGTCATAGACGATTACATTGCTACATGGAGCTGTCTAGAGGATCCGAC
DNA 2: TAGCAATGTAATCGTCTATGACGTT
For B1, which Kd (PriB; [4]) is on record?
The Kd was 628 ± 95 nM.

What about the Kd (PriA helicase; [4]) of the same binder?
Its Kd is 234 ± 62 nM.

B2: N. gonorrhoeae PriB (natural protein)
chain: T1 sequence
Which fold stimulation of PriA helicase activity by PriB (unwinding with versus without PriB; 2 nM PriA, 100 nM PriB monomers, 1 nM 15 bp fork, Fork 1) [1] does the source give for B2 here?
The fold stimulation of PriA helicase activity by PriB (unwinding with versus without PriB; 2 nM PriA, 100 nM PriB monomers, 1 nM 15 bp fork, Fork 1) was 1.2 fold.

And the fold stimulation of PriA helicase activity by PriB (unwinding with versus without PriB; 2 nM PriA, 100 nM PriB monomers, 1 nM 25 bp fork, Fork 2) [1]?
Its fold stimulation of PriA helicase activity by PriB (unwinding with versus without PriB; 2 nM PriA, 100 nM PriB monomers, 1 nM 25 bp fork, Fork 2) is 1.7 fold.

What about the fold stimulation of PriA helicase activity by PriB (unwinding with versus without PriB; 2 nM PriA, 100 nM PriB monomers, 1 nM 40 bp fork, Fork 3) [1] of the same binder?
The fold stimulation of PriA helicase activity by PriB (unwinding with versus without PriB; 2 nM PriA, 100 nM PriB monomers, 1 nM 40 bp fork, Fork 3) was 2.4 fold.

And the percent unwinding of 1 nM Fork 3 by 2 nM PriA against PriB concentration (0 to 100 nM as monomers; 36% without PriB, near saturation at 20 nM) [2]?
The percent unwinding of 1 nM Fork 3 by 2 nM PriA against PriB concentration (0 to 100 nM as monomers; 36% without PriB, near saturation at 20 nM) was 86%.

B3: ssDNA (oML228) (ssDNA)
DNA: AAGCACAATTACCCACGC
For B3, which Kd (PriB; [5]) is on record?
The Kd was 662 ± 37 nM.

And the Kd (PriA helicase; [5])?
The Kd was 307 ± 43 nM.

B4: N. gonorrhoeae PriA (Neisseria gonorrhoeae FA 1090) (protein)
chain: T2 sequence
What does the source list for B4?
Km [3]: 54 ± 19 µM; kcat [3]: 9 ± 1 s⁻¹
